How the values were obtained:
[1] = biological target: T1, human VEGF R2 Fc chimera (R&D systems, 357-KD_CF) (human, UniProt P35968 20-764); test: indirect ELISA, hu8C4 at 6.000 nM
T1 construct: also called VEGFR R2
Experimental: (§1) Each antigen was diluted in 0.05 M carbonate-bicarbonate (Sigma, C3041) buffer at a concentration of 1 μg/ml, after which the resulting antigen was added into each well of a 96-well plate (Corning, #2592), such that the resulting plate was coated at 4° C. overnight. The plate was washed once with TBS-T, after which TBS-T containing 4%—skim milk was added by 200 μl into each well of the resulting plate in order to inhibit a non-specific binding, such that the resulting plate was reacted at 37° C. for 1 hour. Then, the plate was washed once with TBS-T buffer, after which a primary antibody was sequentially diluted in TBS-T buffer containing 2%—skim milk from a highest concentration of 30 nM to 0.002 nM, such that the resulting antibody was added by 100 μk into each well, thus being reacted at 37° C. for 2 hours. After being washed three times with TBS-T buffer, an anti-human kappa light chains-peroxidase (Sigma, A7164) was diluted at a ratio of 1:5000 as a secondary antibody, after which the resulting antibody was added by 100 μl into each well, thus being reacted at 37° C. for 1 hour. Then, after being washed three times with TBS-T buffer, TMB solution (Sigma, T4444) was added by 100 μl into each well to carry out an color developing reaction, after which 2 N […] solution was added by 50 μl into each well to stop the reaction. An optical density was measured based on a value at a wavelength of 450 nm by using a microplate reader and a reference wavelength of 570 nm was used.

[2] = biological target: T2, human PDGF Rβ Fc chimera (R&D systems, 385-PR_CF) (human, UniProt P09619 33-530); test: indirect ELISA, hu8C4 at 6.000 nM
Experimental: as §1

[3] = biological target: T3, human IGF-I R (R&D systems, 391-GR-050) (human, UniProt P08069 31-932); test: indirect ELISA, hu8C4 at 6.000 nM
Experimental: as §1

[4] = biological target: T2, human PDGF Rβ Fc chimera (R&D systems, …); test: indirect ELISA, hu8C4 at 30.000 nM
Experimental: as §1

[5] = biological target: T4, human MSP R/Ron (R&D systems, 1947-MS-050) (human, UniProt Q04912 25-571, limits assumed); test: indirect ELISA, hu8C4 at 30.000 nM
Experimental: as §1

[6] = biological target: T3, human IGF-I R (R&D systems, 391-GR-050); test: indirect ELISA, hu8C4 at 30.000 nM
Experimental: as §1

[7] = biological target: T1, human VEGF R2 Fc chimera (R&D systems, …); test: indirect ELISA, hu8C4 at 1.200 nM
Experimental: as §1

[8] = biological target: T2, human PDGF Rβ Fc chimera (R&D systems, …); test: indirect ELISA, hu8C4 at 1.200 nM
Experimental: as §1

[9] = biological target: T4, human MSP R/Ron (R&D systems, …); test: indirect ELISA, hu8C4 at 1.200 nM
Experimental: as §1

[10] = biological target: T3, human IGF-I R (R&D systems, 391-GR-050); test: indirect ELISA, hu8C4 at 1.200 nM
Experimental: as §1

[11] = biological target: T1, human VEGF R2 Fc chimera (R&D systems, …); test: indirect ELISA, hu8C4 at 0.010 nM
Experimental: as §1

[12] = biological target: T2, human PDGF Rβ Fc chimera (R&D systems, …); test: indirect ELISA, hu8C4 at 0.010 nM
Experimental: as §1

[13] = biological target: T4, human MSP R/Ron (R&D systems, …); test: indirect ELISA, hu8C4 at 0.010 nM
Experimental: as §1

[14] = biological target: T3, human IGF-I R (R&D systems, 391-GR-050); test: indirect ELISA, hu8C4 at 0.010 nM
Experimental: as §1

[15] = biological target: T1, human VEGF R2 Fc chimera (R&D systems, …); test: indirect ELISA, hu8C4 at 0.240 nM
Experimental: as §1

[16] = biological target: T2, human PDGF Rβ Fc chimera (R&D systems, …); test: indirect ELISA, hu8C4 at 0.240 nM
Experimental: as §1

[17] = biological target: T4, human MSP R/Ron (R&D systems, …); test: indirect ELISA, hu8C4 at 0.240 nM
Experimental: as §1

[18] = biological target: T3, human IGF-I R (R&D systems, 391-GR-050); test: indirect ELISA, hu8C4 at 0.240 nM
Experimental: as §1

T1 sequence (P35968 20-764, change not shown): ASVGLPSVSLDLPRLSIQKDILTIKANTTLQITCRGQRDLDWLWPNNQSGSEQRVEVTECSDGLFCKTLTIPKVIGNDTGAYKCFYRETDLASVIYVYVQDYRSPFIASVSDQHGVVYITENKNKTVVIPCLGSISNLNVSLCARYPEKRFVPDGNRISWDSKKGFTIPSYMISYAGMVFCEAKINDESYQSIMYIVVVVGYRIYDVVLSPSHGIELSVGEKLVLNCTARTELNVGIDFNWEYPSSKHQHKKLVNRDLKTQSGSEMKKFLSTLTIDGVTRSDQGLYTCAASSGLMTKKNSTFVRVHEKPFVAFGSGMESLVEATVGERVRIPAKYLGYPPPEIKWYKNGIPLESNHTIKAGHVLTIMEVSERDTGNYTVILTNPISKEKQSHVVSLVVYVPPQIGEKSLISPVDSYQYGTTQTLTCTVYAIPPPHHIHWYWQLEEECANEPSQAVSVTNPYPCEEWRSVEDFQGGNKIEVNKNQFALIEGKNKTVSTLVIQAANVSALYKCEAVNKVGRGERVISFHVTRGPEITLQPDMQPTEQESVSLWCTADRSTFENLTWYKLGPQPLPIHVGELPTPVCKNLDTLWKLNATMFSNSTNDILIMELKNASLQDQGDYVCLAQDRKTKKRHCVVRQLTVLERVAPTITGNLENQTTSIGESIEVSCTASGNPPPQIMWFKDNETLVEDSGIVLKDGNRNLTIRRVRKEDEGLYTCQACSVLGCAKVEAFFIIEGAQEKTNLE
T2 sequence (P09619 33-530, change not shown): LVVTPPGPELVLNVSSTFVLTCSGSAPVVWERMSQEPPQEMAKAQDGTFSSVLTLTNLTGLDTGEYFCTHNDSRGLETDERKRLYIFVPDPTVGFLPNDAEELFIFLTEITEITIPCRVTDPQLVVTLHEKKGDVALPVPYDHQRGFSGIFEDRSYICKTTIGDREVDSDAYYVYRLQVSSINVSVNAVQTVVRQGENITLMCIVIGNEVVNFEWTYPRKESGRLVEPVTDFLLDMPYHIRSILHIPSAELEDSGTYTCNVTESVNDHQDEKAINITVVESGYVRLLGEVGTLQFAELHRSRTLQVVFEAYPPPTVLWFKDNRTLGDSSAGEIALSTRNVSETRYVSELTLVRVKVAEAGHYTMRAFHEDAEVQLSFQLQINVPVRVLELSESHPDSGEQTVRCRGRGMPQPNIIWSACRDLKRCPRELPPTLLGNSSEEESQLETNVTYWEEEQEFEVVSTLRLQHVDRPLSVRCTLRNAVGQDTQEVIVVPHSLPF

A450 nm-A570 nm [1]: -0.01 A450 nm-A570 nm
A450 nm-A570 nm [2]: -0.01 A450 nm-A570 nm
A450 nm-A570 nm [3]: 0 A450 nm-A570 nm
A450 nm-A570 nm [4]: 0.01 A450 nm-A570 nm
A450 nm-A570 nm [5]: 0 A450 nm-A570 nm
A450 nm-A570 nm [6]: 0 A450 nm-A570 nm
A450 nm-A570 nm [7]: -0.01 A450 nm-A570 nm
A450 nm-A570 nm [8]: -0.01 A450 nm-A570 nm
A450 nm-A570 nm [9]: 0 A450 nm-A570 nm
A450 nm-A570 nm [10]: 0 A450 nm-A570 nm
A450 nm-A570 nm [11]: -0.01 A450 nm-A570 nm
A450 nm-A570 nm [12]: -0.01 A450 nm-A570 nm
A450 nm-A570 nm [13]: 0 A450 nm-A570 nm
A450 nm-A570 nm [14]: 0 A450 nm-A570 nm
A450 nm-A570 nm [15]: -0.02 A450 nm-A570 nm
A450 nm-A570 nm [16]: -0.01 A450 nm-A570 nm
A450 nm-A570 nm [17]: 0 A450 nm-A570 nm
A450 nm-A570 nm [18]: 0 A450 nm-A570 nm
B1: hu8C4 (IgG1 humanized antibody having a hinge region of SEQ ID NO: 38 in hu8C4-1) (antibody, V domains shown)
VH: EVQLVESGGGLVQPGGSLRLSCAASGYTFSDYYINWVRQAPGKGLEWIGEIFPGSGNTHFSARFKGRATLSADKSKNTAYLQMNSLRAEDTAVYYCAGGDYGFLYWGQGTLVTVSS
VL: DIQMTQSPSSLSASVGDRVTITCGASENIYGALNWYQQKPGKAPKLLIYGATNLADGVPSRFSGSGSGRDFTFTISSLQPEDIATYYCQNVLSSPYTFGQGTKVEIK
notes: light chain detected with anti-human kappa; also called anti-c-Met antibody hu8C4; hu8C4 monospecific antibody
